# Laboratory results: IntAct's records for PubMed 7851759
# B1: Serine/threonine-protein kinase STE11 (Saccharomyces cerevisiae), P23561 (parent)
# chain: MEQTQTAEGTDLLIGDEKTNDLPFVQLFLEEIGCTQYLDSFIQCNLVTEEEIKYLDKDILIALGVNKIGDRLKILRKSKSFQRDKRIEQVNRLKNLMEKVSSLSTATLSMNSELIPEKHCVIFILNDGSAKKVNVNGCFNADSIKKRLIRRLPHELLATNSNGEVTKMVQDYDVFVLDYTKNVLHLLYDVELVTICHANDRVEKNRLIFVSKDQTPSDKAISTSKKLYLRTLSALSQVGPSSSNLLAQNKGISHNNAEGKLRIDNTEKDRIRQIFNQRPPSEFISTNLAGYFPHTDMKRLQKTMRESFRHSARLSIAQRRPLSAESNNIGDILLKHSNAVDMALLQGLDQTRLSSKLDTTKIPKLAHKRPEDNDAISNQLELLSVESGEEEDHDFFGEDSDIVSLPTKIATPKNWLKGACIGSGSFGSVYLGMNAHTGELMAVKQVEIKNNNIGVPTDNNKQANSDENNEQEEQQEKIEDVGAVSHPKTNQNIHRKMVDALQHEMNLLKELHHENIVTYYGASQEGGNLNIFLEYVPGGSVSSMLNNYGPFEESLITNFTRQILIGVAYLHKKNIIHRDIKGANILIDIKGCVKITDFGISKKLSPLNKKQNKRASLQGSVFWMSPEVVKQTATTAKADIWSTGCVVIEMFTGKHPFPDFSQMQAIFKIGTNTTPEIPSWATSEGKNFLRKAFELDYQYRPSALELLQHPWLDAHII
# B2: Serine/threonine-protein kinase STE11 (Saccharomyces cerevisiae), P23561 (parent)
# chain: B1 chain
# partner: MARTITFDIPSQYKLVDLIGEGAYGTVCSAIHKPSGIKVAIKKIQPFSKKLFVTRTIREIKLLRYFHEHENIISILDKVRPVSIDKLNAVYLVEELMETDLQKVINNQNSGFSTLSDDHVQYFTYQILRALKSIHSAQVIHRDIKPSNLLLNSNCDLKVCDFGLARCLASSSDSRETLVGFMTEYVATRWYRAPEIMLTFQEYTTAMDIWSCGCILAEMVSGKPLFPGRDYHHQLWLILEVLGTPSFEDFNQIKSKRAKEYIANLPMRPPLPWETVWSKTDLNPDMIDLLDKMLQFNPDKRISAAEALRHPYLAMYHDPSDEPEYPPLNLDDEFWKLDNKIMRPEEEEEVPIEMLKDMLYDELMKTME
# B3: Serine/threonine-protein kinase STE11 (Saccharomyces cerevisiae), P23561 (parent)
# chain: B1 chain
# partner: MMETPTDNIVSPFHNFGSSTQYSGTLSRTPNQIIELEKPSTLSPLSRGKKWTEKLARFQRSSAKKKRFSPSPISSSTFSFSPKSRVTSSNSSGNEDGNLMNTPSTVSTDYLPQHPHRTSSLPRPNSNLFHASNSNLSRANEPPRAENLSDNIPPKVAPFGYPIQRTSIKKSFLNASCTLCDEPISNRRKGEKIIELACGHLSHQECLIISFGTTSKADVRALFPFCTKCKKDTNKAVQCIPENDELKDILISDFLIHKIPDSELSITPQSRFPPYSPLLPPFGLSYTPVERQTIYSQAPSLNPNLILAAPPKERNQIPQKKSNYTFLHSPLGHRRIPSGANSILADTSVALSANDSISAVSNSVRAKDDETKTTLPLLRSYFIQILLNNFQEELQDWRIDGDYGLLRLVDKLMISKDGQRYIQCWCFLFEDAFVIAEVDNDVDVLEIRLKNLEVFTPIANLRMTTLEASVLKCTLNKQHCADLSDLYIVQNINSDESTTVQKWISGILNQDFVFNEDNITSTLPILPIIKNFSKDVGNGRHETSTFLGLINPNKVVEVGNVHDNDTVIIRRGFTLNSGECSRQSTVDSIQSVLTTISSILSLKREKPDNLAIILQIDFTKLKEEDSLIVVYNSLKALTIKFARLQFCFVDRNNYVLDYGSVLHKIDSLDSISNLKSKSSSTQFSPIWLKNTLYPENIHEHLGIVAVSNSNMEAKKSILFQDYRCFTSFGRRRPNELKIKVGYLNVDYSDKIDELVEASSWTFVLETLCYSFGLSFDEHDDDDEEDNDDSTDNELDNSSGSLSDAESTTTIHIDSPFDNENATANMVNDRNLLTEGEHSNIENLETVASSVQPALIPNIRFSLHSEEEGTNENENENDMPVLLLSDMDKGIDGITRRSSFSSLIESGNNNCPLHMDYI
# Variants of: B1
# Conditions: with fus3_yeast FUS3, P16892
# Sequence of fus3_yeast FUS3, P16892 (P16892 whole entry): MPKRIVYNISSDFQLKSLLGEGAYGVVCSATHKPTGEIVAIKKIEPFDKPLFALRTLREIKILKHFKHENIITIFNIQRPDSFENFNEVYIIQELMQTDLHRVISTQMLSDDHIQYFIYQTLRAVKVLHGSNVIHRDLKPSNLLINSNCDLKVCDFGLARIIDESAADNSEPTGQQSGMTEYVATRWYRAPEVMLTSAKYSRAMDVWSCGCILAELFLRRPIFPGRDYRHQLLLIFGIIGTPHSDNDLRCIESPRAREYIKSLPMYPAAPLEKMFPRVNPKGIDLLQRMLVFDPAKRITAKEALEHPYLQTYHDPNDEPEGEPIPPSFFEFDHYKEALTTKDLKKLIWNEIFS
row,Variant,effect of a mutation on the interaction
1,P279S,decreasing interaction

# Variants of: B2
# Conditions: with kss1_yeast KSS1, P14681
row,Variant,effect of a mutation on the interaction
1,P279S,decreasing interaction

# Variants of: B3
# Conditions: with ste5_yeast STE5, P32917
row,Variant,effect of a mutation on the interaction
1,P279S,increasing interaction
